Test results taken from patent US5780265.
pKi: −log10 of the molar value.

Experiments:
[1] = target: Human Factor XIa (human) (UniProt P03951)
[2] = target: Human plasma kallikrein (human) (UniProt P03952)
[3] = target: tissue factor-Factor VIIa (human) (UniProt P13726)
[4] = target: Human Factor XIa (human) (UniProt P03951); remark: listed apart in the source
[5] = target: Human Factor XIa (human) (UniProt P03951); test: enzyme inhibition of FXIa, chromogenic substrate, fit to the tight-binding equation (apparent Ki*)

fraction of remaining proteolytic activity at 100 nM inhibitor (fraction of uninhibited rate) [1]: 0.03
fraction of remaining proteolytic activity at 100 nM inhibitor (fraction of uninhibited rate) [2]: 0.81
fraction of remaining proteolytic activity at 100 nM inhibitor (fraction of uninhibited rate) [3]: 0.6
fold prolongation of the clotting time of normal human plasma, APTT assay [4]: 2.8 fold
pKi [5]: 8.57
Substance: APPI, Kunitz protease inhibitor domain of the Alzheimer's amyloid β-protein precursor
